This note sets out measurements from PMC12631472, “Low-Cost Label-Free Electrochemical Aptasensor for Dual Detection of Dengue and Zika Using Fluorine-Doped Tin Oxide Modified with APTES and Gold Nanoparticles”.

For this data set, the target named is Dengue NS1 (NS1-D) (Dengue virus serotype 4, UniProt P09866 775-1126). Kind of data set: electrochemical impedance spectroscopy; PBS; 1000 ng/mL NS1-D; dRct 114.1 ± 0.2%; LoD 0.21 ng/mL; PBS or commercial human serum; aptamer immobilized at 4 °C in 0.8 M PB, 1.0 M NaCl, 5 mM MgCl2, 1 mM EDTA, pH 7; aptamer:total thiol 1:250; assay temperature not stated. The conditions noted are these: protein: commercial; chain copies: 2.
Chain of Dengue NS1 (NS1-D) (P09866 775-1126): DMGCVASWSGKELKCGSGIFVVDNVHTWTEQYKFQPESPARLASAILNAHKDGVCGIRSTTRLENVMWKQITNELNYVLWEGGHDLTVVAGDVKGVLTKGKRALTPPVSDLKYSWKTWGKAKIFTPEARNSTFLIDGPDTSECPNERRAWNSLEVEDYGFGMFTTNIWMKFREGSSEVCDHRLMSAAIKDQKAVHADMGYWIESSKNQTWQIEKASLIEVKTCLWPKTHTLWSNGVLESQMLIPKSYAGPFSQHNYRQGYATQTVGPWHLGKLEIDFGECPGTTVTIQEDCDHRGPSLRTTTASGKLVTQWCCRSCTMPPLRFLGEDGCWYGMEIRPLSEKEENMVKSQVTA

Regarding TTTTAGCGGATCCGATGGGTGGGGGGGTGGGTAGGATCCGCG (structured_DNA, 5'-HS-(CH2)6 thiol) [NS1 DNA aptamer], the binding result is “binds”.
